Legend:
Experiment in all cases: Luminex, myc-captured LEPR protein on beads, Ab 0.5 µg/mL
[1] = biological target: T1, human LEPR CRH2-MMH (human, UniProt P48357 428-634, limits assumed)
T1 construct: domain: CRH2; Transiently expressed, captured from supernatant on anti-myc beads
T1 sequence (looked up): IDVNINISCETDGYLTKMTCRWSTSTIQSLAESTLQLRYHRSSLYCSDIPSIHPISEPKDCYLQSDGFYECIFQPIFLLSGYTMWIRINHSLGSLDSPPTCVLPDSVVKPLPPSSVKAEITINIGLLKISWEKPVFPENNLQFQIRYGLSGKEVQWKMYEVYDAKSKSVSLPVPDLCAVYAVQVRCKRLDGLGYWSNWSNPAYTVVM
Procedure: (§1) Aliquots of microspheres with immobilized anti-myc monoclonal antibodies, prepared as described above, were added individually to 1 mL of the each of these protein supernatants. The microspheres were gently mixed, incubated for two hours at 25° C., washed twice with 1 mL of DBPS, centrifuged to remove the supernatant and finally resuspended in 1 mL of DPBS buffer. Forty eight μL of anti-myc IgG coupled microspheres from individual reactions with full length human LEPR and with each of the human LEPR domain proteins were withdrawn and mixed together in 3.6 mL of PBS+20 mg/mL BSA+0.05% sodium azide (blocking buffer).
(§2) From this mixed pool, 75 μL of microspheres were plated per well on a 96 well filter plate (Millipore, Cat. No: MSBVN1250) and mixed with 25 μL of individual anti-human LEPR monoclonal antibodies (0.5 or 5 μg/mL), incubated for two hours at 25° C. and then washed twice with 200 μL of DPBS with 0.05% Tween 20 (washing buffer). […] After 30 minutes, the samples were washed twice with 200 μL of washing buffer and resuspended in 150 μL of wash buffer. The Median Fluorescence intensity (MFI) of the microspheres was measured in a Luminex Analyzer.

[2] = biological target: T2, recombinant human LEPR extracellular domain expressed with a C-terminal myc-myc-hexahistidine tag (human, UniProt P48357 22-839)
T2 construct: Monomeric construct; also called hLEPR.MMH; hLEPR-MMH
Procedure: as §1, §2

[3] = biological target: T3, human LEPR FNIII-MMH (human, UniProt P48357 636-839, limits assumed)
T3 construct: domain: FNIII; Transiently expressed, captured from supernatant on anti-myc beads
T3 sequence (looked up): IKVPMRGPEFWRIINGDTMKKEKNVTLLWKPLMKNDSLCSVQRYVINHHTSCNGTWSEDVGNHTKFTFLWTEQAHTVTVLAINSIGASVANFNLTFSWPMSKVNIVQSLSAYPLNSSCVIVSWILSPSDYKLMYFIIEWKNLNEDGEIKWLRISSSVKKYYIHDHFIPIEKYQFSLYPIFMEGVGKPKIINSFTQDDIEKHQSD
Procedure: as §1, §2

[4] = biological target: T4, human LEPR CRH1 (D1)-MMH (human, UniProt P48357 22-229, limits assumed)
T4 construct: domain: CRH1 (D1); Transiently expressed, captured from supernatant on anti-myc beads
T4 sequence (looked up): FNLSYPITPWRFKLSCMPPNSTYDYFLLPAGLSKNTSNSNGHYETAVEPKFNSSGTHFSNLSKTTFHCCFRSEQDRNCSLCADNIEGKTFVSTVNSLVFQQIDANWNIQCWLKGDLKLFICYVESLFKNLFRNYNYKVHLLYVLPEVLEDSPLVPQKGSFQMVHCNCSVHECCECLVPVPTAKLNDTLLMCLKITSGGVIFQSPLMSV
Procedure: as §1, §2

[5] = biological target: T5, human LEPR CRH1-Ig (D2,D3)-MMH (human, UniProt P48357 230-427, limits assumed)
T5 construct: domain: CRH1-Ig (D2,D3); Transiently expressed, captured from supernatant on anti-myc beads
T5 sequence (looked up): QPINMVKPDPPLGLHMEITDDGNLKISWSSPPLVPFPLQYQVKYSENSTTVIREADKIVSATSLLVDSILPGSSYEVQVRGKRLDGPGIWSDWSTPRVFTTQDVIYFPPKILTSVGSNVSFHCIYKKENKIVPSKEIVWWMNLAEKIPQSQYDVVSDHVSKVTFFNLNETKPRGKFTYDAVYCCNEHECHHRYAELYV
Procedure: as §1, §2

[6] = biological target: T6, human LEPR CRH1 (D1,D2)-MMH (human, UniProt P48357 22-339, limits assumed)
T6 construct: domain: CRH1 (D1,D2); Transiently expressed, captured from supernatant on anti-myc beads
T6 sequence (looked up): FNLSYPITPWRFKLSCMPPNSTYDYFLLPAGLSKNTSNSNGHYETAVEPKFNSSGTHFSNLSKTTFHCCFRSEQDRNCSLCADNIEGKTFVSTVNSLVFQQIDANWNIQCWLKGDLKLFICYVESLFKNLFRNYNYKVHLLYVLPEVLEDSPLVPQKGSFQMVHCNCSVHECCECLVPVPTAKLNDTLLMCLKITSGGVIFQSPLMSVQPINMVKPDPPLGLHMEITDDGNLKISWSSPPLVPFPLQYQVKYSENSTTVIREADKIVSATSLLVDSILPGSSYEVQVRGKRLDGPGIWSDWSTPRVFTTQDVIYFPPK
Procedure: as §1, §2

B1: H4H18462P2 (antibody, human IgG4, V domains shown)
VH: EVQLVESGGDLVQPGRSLRLSCAASGFTFSSFAMSWVRQAPGRGLEWVSSLSDSGDNTYYADSVKGRFTISRDNSKNTLYLQMNNLRAEDTAVYYCAKDLFSGWLFHGFDVWGQGTMVTVSS
VL: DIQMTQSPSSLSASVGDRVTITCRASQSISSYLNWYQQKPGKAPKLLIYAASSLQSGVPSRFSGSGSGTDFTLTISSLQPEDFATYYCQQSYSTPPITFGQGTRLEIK
notes: H4H prefix: human IgG4 Fc
Luminex MFI [1]: 8 MFI
Luminex MFI [2]: 3610 MFI
Luminex MFI [3]: 229 MFI
Luminex MFI [4]: 615 MFI
Luminex MFI [5]: 25 MFI
Luminex MFI [6]: 665 MFI
